Assays:
[1] = molecular target: T1, human VEGFA165 (human, UniProt P15692 207-395); test: Biacore SPR at 25 C; antibody captured on Protein A, hVEGFA165 as analyte; 1:1 fit; off-rate too slow to quantitate accurately
T1 construct: Recombinant soluble protein; also called hVEGFA165; rhVEGFA
Experimental: (§1) Immobilization of soluble Protein A (Calbiochem #539202) on a CM4 (GE Healthcare #BR-1005-34) or CMS (GE Healthcare #BR-1000-99) is prepared using EDC/NHS amine coupling method (GE Healthcare #BR-1000-50). Briefly, the surfaces of all four flow cells is activated by injecting a 1:1 mixture of EDC/NHS for seven minutes at 10 μL/min After which, soluble protein A is diluted to 50-100 μg/mL in 10 mM acetate buffer, pH 4.5, and immobilized for seven minutes onto flow cell (Fc) 2, 3 or 4 at a flow rate of 10 μL/min. Unreacted sites still remaining on the chip surface are blocked with a seven minute injection of ethanolamine at 10 μL/min Running buffer is HBS-EP+ (GE Healthcare #BR-1006-69) with addition of 100 mM NaCl. Compound samples are prepared at 1 μg/mL by dilution into running buffer. […] Resultant data is processed using standard double-referencing and fit to a 1:1 binding model using Biacore 2000 Evaluation software, version 4.1, to determine the association rate (kₒₙ, M⁻¹s⁻¹ units), dissociation rate (koff, s⁻¹ units). Calculation of the equilibrium dissociation constant (KD) is calculated from the following relationship, KD=koff/kₒₙ, and is presented in molar units.

[2] = molecular target: T1, human VEGFA165; test: Biacore SPR at 25 C; antibody captured on Protein A, hVEGFA165 as analyte; 1:1 fit
Experimental: as §1

[3] = molecular target: T1, human VEGFA165; test: KinExA kinetic exclusion assay at 25 C, solution equilibrium with hVEGFA165
From the text: (§2) A KinExA 3200 instrument is used to measure binding kinetics to human VEGFA165. Briefly, human VEGFA165 is covalently coupled to NHS-activated sepharose beads (GE Healthcare #17-0906-01) and the binding of free Mab to the conjugated beads is detected on the KinExA 3200. […] (depending on the temperature analyzed) in Casein Blocking Buffer (ThermoFisher #37528). […] It follows that the relative intensity of signal generated in these steps is proportional to the degree of free/uncomplexed compound present in each solution tested. The resultant composite set of fluorescent intensities is plotted as a function of the concentration of human VEGFA165 present in each discrete sample and fit using the N-curve analysis software (KinExA) to a standard two state binding model to determine KD for the given MOI. Statistical confidence is reported by calculation of the 95% confidence intervals.

[4] = molecular target: T1, human VEGFA165; test: KinExA kinetic exclusion assay at 37 C, solution equilibrium with hVEGFA165
From the text: as §2

[5] = molecular target: T1, human VEGFA165; test: Biacore SPR at 25 C; antibody captured on Protein A, hVEGFA165 as analyte; value called an upper limit
Experimental: as §1

[6] = molecular target: T1, human VEGFA165; test: cell-based or functional assay

T1 sequence (P15692 other isoform, or with tags, fused parts or gaps): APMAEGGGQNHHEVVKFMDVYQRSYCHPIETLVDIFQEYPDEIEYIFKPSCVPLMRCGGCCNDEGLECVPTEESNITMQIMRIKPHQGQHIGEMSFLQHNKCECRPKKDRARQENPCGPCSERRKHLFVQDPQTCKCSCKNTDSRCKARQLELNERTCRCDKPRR

B1: parental anti-VEGFA antibody of Compound A (antibody, human IgG4 S228P, kappa, F234A L235A, V domains shown)
VH: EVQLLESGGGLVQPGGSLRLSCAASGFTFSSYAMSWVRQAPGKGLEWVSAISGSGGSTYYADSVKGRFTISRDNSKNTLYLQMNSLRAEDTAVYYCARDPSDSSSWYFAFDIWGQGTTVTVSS
VL: DIVMTQSPATLSVSPGQRATLSCRASQNIRNNLAWYQQKRGQAPRLLIYGASTRATGIPDRFSGSGSGADFTLTISKLEPEDFAVYYCQQYGSSPRTFGQGTKVDIKR
notes: also called Parental VEGFA Ab; parental VEGFA antibody
koff [1]: 3.9e-05 s⁻¹
kon [2]: 2.93e+06 M⁻¹ s⁻¹
Kd [3]: 27 pM
Kd [4]: 183 pM
Kd [5]: ≤ 13.2 pM
IC50 for inhibition of VEGFA165 induced proliferation of ECFC (3H thymidine) [6]: 1380 pM
IC50 for inhibition of VEGFA induced cord formation in ADSC/ECFC co-culture (total tube area) [6]: 1570 pM

From patent publication US20160215045A1 (Eli Lilly, published 2016)
